Residue numbers refer to the chain shown, from its start. Names may count otherwise. “And” between values parts separate entries of the source, which are not always exact repeats. Equal values may be shown once.
B1: Recombinant wild-type S100P (residues 1–95), calcium-bound (natural protein, UniProt P25815 1-95, looked up)
chain: MTELETAMGMIIDVFSRYSGSEGSTQTLTKGELKVLMEKELPGFLQSGKDKDAVDKLLKDLDANGDAQVDFSEFIVFVAAITSACHKYFEKAGLK
notes: S100P, residues 1-95; 15N-labelled or unlabelled in the NMR experiments; it names no tag; also called WS100P; source: E. coli BL21(DE3), pET-20b(+), purified (size exclusion chromatography, Superdex 75)
B2: S100P E5A single mutant (natural protein, UniProt P25815 1-95, looked up)
chain: B1 chain with E5A
notes: S100P, residues 1-95, with E5A; Used with 4 mM CaCl2; source: E. coli BL21(DE3), pET-20b(+), purified (size exclusion chromatography, Superdex 75)
B3: S100P F44G/Y88G/F89G triple mutant (natural protein, UniProt P25815 1-95, looked up)
chain: B1 chain with F44G, Y88G, F89G
notes: S100P, residues 1-95, with F44G, Y88G and F89G; Section 2.2 prints 'F44G/Y89G/F89G'; every other place prints F44G/Y88G/F89G; Used with 4 mM CaCl2; also called S100P F44G/Y89G/F89G (as printed in the methods); source: E. coli BL21(DE3), pET-20b(+), purified (size exclusion chromatography, Superdex 75)
B4: S100P D13A single mutant (natural protein, UniProt P25815 1-95, looked up)
chain: B1 chain with D13A
notes: S100P, residues 1-95, with D13A; Used with 4 mM CaCl2; source: E. coli BL21(DE3), pET-20b(+), purified (size exclusion chromatography, Superdex 75)

Assays:
[1] = target: T1, Recombinant RAGE V domain (residues 24–121) (UniProt Q15109 24-121); assay: other fluorescence titration; intrinsic tryptophan fluorescence of 2 µM RAGE V domain (excitation 295 nm, emission 348.5 nm), S100P added in increments; 20 mM Tris-HCl pH 7.0, 100 mM NaCl, 4 mM CaCl2; 25°C; one-site binding model; details: both partners purified
T1 construct: Receptor for advanced glycation end products (RAGE), V domain, residues 24-121; Purified as a monomer; 15N- or 15N,13C-labelled or unlabelled in the NMR experiments; also called V domain of RAGE; not shown: His6, N-terminal, cleaved

[2] = target: T1, Recombinant RAGE V domain (residues …); assay: cell-based or functional assay
[3] = target: the molecule itself; assay: SEC; S100P proteins on a Superdex 75 column (1.6×60 cm), last step of purification
[4] = target: T1, Recombinant RAGE V domain (residues …); assay: ITC; S100P (2.0 mM, syringe) titrated into RAGE V domain (0.06 mM, cell); MicroCal VP-ITC; 25°C; 20 mM Tris-HCl pH 7.0, 100 mM NaCl, 4 mM CaCl2; single-site model; similar approach for the S100P mutants; details: both partners purified

T1 sequence (Q15109 24-121): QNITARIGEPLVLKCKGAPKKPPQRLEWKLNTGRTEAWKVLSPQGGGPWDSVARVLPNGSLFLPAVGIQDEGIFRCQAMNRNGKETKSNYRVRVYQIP

Binder	Kd [1] [µM]	SW-480 cell proliferation (MTT assay, 48 h), 100 nM wild-type S100P, viable cell count against the control [2] [fold]	stoichiometry N [3]	Kd [4]	dH [4] [kJ/mol]	stoichiometry N [4]
B1	~6.8	~1.5	2	6.2 ± 0.1 µM	17.13 ± 0.0837	1.07 ± 0.03
B2			2	22.8 µM and 23.6 µM		
B3			2			
B4			2	878 µM		
